Laboratory results reported in article PMC8324831 (2021).
Numbering of substitutions follows the chain as printed.

B1: sybody LR1 (VHH)
VHH: QVQLVESGGGSVQAGGSLRLSCAASGSISSITYLGWFRQAPGKEREGVAALITDSGRTYYADSVKGRFTVSLDNAKNTVYLQMNSLKPEDTALYYCAAAEWGYEWPLYYASSWYWGQGTQVTVS
B2: sybody LR5 (VHH)
VHH: B1 VHH with D54S, S55N, E100T, E104H, Y108G, Y109A, A110W, S111D, S112Y
B3: sybody MR4 (VHH)
VHH: QVQLVESGGGLVQAGGSLRLSCAASGFPMYAWEMAWYRQAPGKEREWVAAIRSMGVHTHYSDSVKGRFTISRDNAKNTVYLQMNSLKPEDTAVYYCNVKDFGGHQAYYDYWGQGTQVTVS
B4: sybody SR4 (VHH)
VHH: QVQLVESGGGLVQAGGSLRLSCAASGFPVYSWNMWWYRQAPGKEREWVAAIESHGDSTRYADSVKGRFTISRDNAKNTVYLQMNSLKPEDTAVYYCYVWVGHTYYGQGTQVTVS
modifications: biotin by an amine-reactive crosslinker (only where immobilised on the SA sensor)
B5: sybody MR17 (VHH)
VHH: QVQLVESGGGLVQAGGSLRLSCAASGFPVEVWRMEWYRQAPGKEREGVAAIESYGHGTRYADSVKGRFTISRDNAKNTVYLQMNSLKPEDTAVYYCNVKDDGQLAYHYDYWGQGTQVTVS
modifications: biotin by an amine-reactive crosslinker (only where immobilised on the SA sensor)

Each binder was assayed against T1, SARS-CoV-2 S-RBD with Avi-tag and deca-His tag (residues 330-531) (SARS-CoV-2, UniProt P0DTC2 330-531) (assay: BLI).

Going from B1 to B2, the Kd falls from 47.5 nM to 22.8 nM (2.1-fold).

Compared with B3, B4 is 1.6-fold lower in Kd: 23.3 nM for the first, 14.5 nM for the second. The second binds more tightly here.

Biological target: T1, SARS-CoV-2 S-RBD with Avi-tag and …
Experiment: BLI
Remark: another data set of the same source

Compared with B1, B2 is 3-fold lower in koff: 0.0096 s⁻¹ for the first, 0.0032 s⁻¹ for the second.

Compared with B3, B4 is 4.6-fold lower in koff: 0.0064 s⁻¹ for the first, 0.0014 s⁻¹ for the second.

For B5, the koff was 0.0097 s⁻¹.
